Assays:
[1] = target: purified 20S core peptidase (CP) (S. cerevisiae) (UniProt P21242); assay: Suc-LLVY-AMC peptidase activity titration
[2] = target: purified 20S core peptidase (CP) (S. cerevisiae) (UniProt P21242); assay: NADH-coupled ATPase displacement assay

Sequence of UniProt P21242 (P21242 whole entry, looked up): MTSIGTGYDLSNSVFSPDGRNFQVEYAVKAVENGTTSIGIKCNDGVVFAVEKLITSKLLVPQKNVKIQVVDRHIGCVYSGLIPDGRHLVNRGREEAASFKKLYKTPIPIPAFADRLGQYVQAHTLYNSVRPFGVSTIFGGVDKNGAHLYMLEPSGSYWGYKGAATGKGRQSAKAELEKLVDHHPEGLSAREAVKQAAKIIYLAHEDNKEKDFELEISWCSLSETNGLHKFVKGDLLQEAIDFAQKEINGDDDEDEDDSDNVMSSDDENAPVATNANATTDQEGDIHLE

Kd [1]: 0.065 µM
IC50 [2]: 3 µM
Substance: 3x-Flag-tagged Blm10 (from UniProt P43583 1-2143) (natural protein)
